Measured values published in patent US20250019439A1 (Adimab, published 2025).

Columns and labels:
ADI-70326 = target: T1, ADI-70326; assay: SPR Carterra, CHO anti-ID
T1 construct: anti-CD3 antibody made in CHO cells, captured by anti-human Fc
Protocol: (§1) Kinetic analysis was conducted at 25° C. in an HBSTE running buffer system (Carterra Cat #3630) using a Carterra LSA (Carterra USA, Salt Lake City, UT). The sample compartment was maintained at 20° C. for the duration of each experiment.
(§2) For antibody capture experiments, a goat anti-human Fc antibody (Jackson ImmunoResearch) was covalently coupled to an HC30M sensor chip surface via standard amine coupling (1:1 EDC:NHS) and then blocked with ethanolamine (1.0 M, pH 8.5). Covalent coupling steps were performed in 25 mM MES buffer (Carterra, Cat #3625) plus 0.05% Tween20. The anti-CD3 antibodies (100 nM in running buffer) were flowed over discrete regions of interest on the chip surface for 5 minutes. […] Dissociation of the anti-idiotype antibodies was monitored for 300s. Several blank buffer samples were injected over the entire chip surface at the start of each non-regenerative kinetic cycle. The preceding blank buffer injection was used for blank surface subtraction. At the end of each non-regenerative kinetic cycle, all surfaces were regenerated via two 30s injections of 10 mM glycine, pH 1.7.
(§3) In Tables 10A-10C, anti-CD3 antibodies are listed by ADI number or CTL number in the first column. […] CTL-62223 is mosunetuzumab, CTL-62227 is odronextamab, CTL-62228 is glofitamab, and CTL-62240 is ONO-4685. […] “W.B.” means weak binding under the conditions of this assay and thus a KD was unable to be assigned. “N.B.” means no binding under the conditions of this assay.

ADI-22523 Fab = target: T2, ADI-22523 Fab; assay: BLI; tip ADI-34145 IgG, solution anti-CD3 Fab
T2 construct: anti-CD3 Fab by papain digestion of the IgG
T2 sequence (VH, as listed by the source limits assumed, chain 1 of 2): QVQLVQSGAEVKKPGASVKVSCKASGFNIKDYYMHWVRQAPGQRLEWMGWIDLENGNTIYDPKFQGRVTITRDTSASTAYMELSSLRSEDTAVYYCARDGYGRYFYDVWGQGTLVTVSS
T2 sequence (VL, as listed by the source limits assumed, chain 2 of 2): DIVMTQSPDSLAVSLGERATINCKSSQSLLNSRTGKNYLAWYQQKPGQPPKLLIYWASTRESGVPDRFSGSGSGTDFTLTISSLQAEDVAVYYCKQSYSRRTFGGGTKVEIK
Protocol: (§4) ForteBio affinity measurements were performed generally as previously described (Estep et al., MAbs. 2013 5(2):270-8). Briefly, ForteBio affinity measurements were performed by loading antibody IgG or Fabs on-line onto AHC sensors. Sensors were equilibrated off-line in assay buffer for 30 minutes and then monitored on-line for 60 seconds for baseline establishment. For avid binding measurement, sensors with loaded antibodies were exposed to IgG or Fab solutions for 3 minutes, afterwards they were transferred to assay buffer for 3 minutes for off-rate measurement. Kinetics data were fit using a 1:1 binding model in the data analysis software provided by ForteBio to obtain equilibrium dissociation constant (KD=koff/kₒₙ) values. In each column, tip-immobilized antibodies are listed first and solution antibodies second.
(§5) CTL-19613 is an IgG1 antibody prepared with anti-CD3 variable domains corresponding with those of clone 12C described in United States Publication Number US 2010/0183615 (e.g., see paragraphs 469-479 and FIG. 25 thereof), which also make up the CD3 binding domain of the bispecific antibody pasotuxizumab. […] In each column, tip-immobilized antibodies are listed first and solution antibodies second.

CTL-19672 Fab = target: T3, CTL-19672 Fab; assay: BLI; tip ADI-34145 IgG, solution anti-CD3 Fab
T3 construct: anti-CD3 Fab by papain digestion of the IgG1
T3 sequence (VH, as listed by the source limits assumed, chain 1 of 2): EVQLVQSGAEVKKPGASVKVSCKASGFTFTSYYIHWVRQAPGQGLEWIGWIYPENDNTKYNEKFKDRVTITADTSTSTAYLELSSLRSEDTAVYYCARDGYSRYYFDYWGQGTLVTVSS
T3 sequence (VL, as listed by the source limits assumed, chain 2 of 2): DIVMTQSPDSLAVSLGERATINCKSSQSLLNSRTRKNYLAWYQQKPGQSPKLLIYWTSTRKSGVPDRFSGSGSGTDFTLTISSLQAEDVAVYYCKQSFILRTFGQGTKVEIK
Protocol: as §4, §5

CTL-62227 = target: T4, CTL-62227; assay: SPR Carterra, CHO anti-ID
T4 construct: also called odronextamab
T4 sequence (VH, as listed by the source, chain 1 of 2): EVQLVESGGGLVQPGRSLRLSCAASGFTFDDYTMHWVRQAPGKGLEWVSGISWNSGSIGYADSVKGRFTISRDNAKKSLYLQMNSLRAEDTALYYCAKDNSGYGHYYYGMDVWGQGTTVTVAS
T4 sequence (VL, as listed by the source, chain 2 of 2): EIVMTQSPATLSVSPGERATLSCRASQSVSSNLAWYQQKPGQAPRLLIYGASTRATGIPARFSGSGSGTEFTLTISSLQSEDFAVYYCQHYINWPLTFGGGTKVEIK
Protocol: as §1, §2, §3

CTL-62228 = target: T5, CTL-62228; assay: SPR Carterra, CHO anti-ID
T5 construct: also called glofitamab
Protocol: as §1, §2, §3

CTL-62240 = target: T6, CTL-62240; assay: SPR Carterra, CHO anti-ID
T6 construct: also called ONO-4685
T6 sequence (VH, as listed by the source, chain 1 of 2): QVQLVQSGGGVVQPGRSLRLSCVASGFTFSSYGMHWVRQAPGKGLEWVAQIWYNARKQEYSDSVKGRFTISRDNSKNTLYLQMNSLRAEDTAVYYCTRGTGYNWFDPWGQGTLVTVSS
T6 sequence (VL, as listed by the source, chain 2 of 2): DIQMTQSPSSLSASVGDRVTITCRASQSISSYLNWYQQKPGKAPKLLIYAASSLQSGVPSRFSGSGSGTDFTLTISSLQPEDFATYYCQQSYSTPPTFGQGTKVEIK
Protocol: as §1, §2, §3

ADI-22523 IgG = target: T7, ADI-22523 IgG; assay: BLI; tip ADI-34134 IgG, solution anti-CD3 IgG
T7 construct: anti-CD3 IgG
Protocol: as §4
(§6) In each column, tip-immobilized antibodies are listed first and solution antibodies second.

ADI-26927 IgG = target: T8, ADI-26927 IgG; assay: BLI; tip ADI-34134 IgG, solution anti-CD3 IgG
T8 construct: anti-CD3 IgG
T8 sequence (VH, as listed by the source limits assumed, chain 1 of 2): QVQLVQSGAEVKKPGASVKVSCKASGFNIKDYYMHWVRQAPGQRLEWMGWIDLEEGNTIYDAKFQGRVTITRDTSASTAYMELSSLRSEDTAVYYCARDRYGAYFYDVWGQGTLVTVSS
T8 sequence (VL, as listed by the source limits assumed, chain 2 of 2): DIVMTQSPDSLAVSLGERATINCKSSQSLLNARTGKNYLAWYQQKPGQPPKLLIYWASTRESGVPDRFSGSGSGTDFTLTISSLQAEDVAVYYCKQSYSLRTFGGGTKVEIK
Protocol: as §4, §6

ADI-26928 IgG = target: T9, ADI-26928 IgG; assay: BLI; tip ADI-34134 IgG, solution anti-CD3 IgG
T9 construct: anti-CD3 IgG
T9 sequence (VH, as listed by the source limits assumed, chain 1 of 2): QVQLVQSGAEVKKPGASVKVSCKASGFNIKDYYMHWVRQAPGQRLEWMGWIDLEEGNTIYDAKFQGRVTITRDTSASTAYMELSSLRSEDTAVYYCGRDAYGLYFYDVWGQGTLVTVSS
Protocol: as §4, §6

ADI-26941 IgG = target: T10, ADI-26941 IgG; assay: BLI; tip ADI-34134 IgG, solution anti-CD3 IgG
T10 construct: anti-CD3 IgG
T10 sequence (VH, as listed by the source limits assumed, chain 1 of 2): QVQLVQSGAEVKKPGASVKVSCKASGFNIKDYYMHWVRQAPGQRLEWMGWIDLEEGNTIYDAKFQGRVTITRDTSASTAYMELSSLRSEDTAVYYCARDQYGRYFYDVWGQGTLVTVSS
T10 sequence (VL, as listed by the source limits assumed, chain 2 of 2): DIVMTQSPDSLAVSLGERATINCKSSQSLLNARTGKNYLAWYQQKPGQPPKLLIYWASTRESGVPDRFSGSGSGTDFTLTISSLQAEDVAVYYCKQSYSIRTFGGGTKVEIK
Protocol: as §4, §6

ADI-26954 IgG = target: T11, ADI-26954 IgG; assay: BLI; tip ADI-34134 IgG, solution anti-CD3 IgG
T11 construct: anti-CD3 IgG
T11 sequence (VH, as listed by the source limits assumed, chain 1 of 2): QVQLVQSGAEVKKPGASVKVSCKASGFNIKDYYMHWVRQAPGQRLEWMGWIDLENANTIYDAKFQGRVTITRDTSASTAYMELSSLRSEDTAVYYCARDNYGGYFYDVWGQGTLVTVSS
T11 sequence (VL, as listed by the source limits assumed, chain 2 of 2): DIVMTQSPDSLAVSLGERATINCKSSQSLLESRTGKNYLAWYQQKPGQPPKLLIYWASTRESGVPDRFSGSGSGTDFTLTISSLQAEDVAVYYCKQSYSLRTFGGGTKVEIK
Protocol: as §4, §6

CTL-19613 IgG = assay: BLI; tip ADI-34134 IgG, solution anti-CD3 IgG
Protocol: as §4, §6

ADI-26906 IgG = target: T12, ADI-26906 IgG; assay: BLI; tip ADI-34134 IgG, solution anti-CD3 IgG
T12 construct: anti-CD3 IgG
T12 sequence (VH, as listed by the source limits assumed, chain 1 of 2): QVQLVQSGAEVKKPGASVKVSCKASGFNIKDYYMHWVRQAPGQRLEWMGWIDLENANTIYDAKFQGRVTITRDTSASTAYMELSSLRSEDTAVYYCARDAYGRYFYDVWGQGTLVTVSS
T12 sequence (VL, as listed by the source limits assumed, chain 2 of 2): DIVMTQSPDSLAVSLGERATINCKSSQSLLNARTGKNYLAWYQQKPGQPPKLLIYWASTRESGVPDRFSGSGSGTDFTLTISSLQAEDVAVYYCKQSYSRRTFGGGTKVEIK
Protocol: as §4, §6

ADI-26913 IgG = target: T13, ADI-26913 IgG; assay: BLI; tip ADI-34134 IgG, solution anti-CD3 IgG
T13 construct: anti-CD3 IgG
T13 sequence (VH, as listed by the source limits assumed, chain 1 of 2): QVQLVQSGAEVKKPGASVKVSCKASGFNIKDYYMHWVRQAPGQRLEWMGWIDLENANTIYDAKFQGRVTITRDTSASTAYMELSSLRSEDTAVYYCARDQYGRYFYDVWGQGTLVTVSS
Protocol: as §4, §6

ADI-26921 IgG [1] = target: T14, ADI-26921 IgG; assay: BLI; tip ADI-34134 IgG, solution anti-CD3 IgG
T14 construct: anti-CD3 IgG
T14 sequence (VH, as listed by the source limits assumed, chain 1 of 2): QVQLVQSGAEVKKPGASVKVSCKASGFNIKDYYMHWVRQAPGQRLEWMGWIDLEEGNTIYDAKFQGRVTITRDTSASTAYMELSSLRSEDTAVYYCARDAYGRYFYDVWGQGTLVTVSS
Protocol: as §4, §6

ADI-26916 IgG = target: T15, ADI-26916 IgG; assay: BLI; tip ADI-34134 IgG, solution anti-CD3 IgG
T15 construct: anti-CD3 IgG
T15 sequence (VH, as listed by the source, chain 1 of 2): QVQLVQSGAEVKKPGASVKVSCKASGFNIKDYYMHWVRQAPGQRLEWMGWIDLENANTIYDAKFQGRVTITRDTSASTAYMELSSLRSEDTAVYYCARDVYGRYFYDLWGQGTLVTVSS
Protocol: as §4, §6

ADI-50024 = target: T16, ADI-50024; assay: SPR Carterra avidity, CHO anti-ID, *koff limit
T16 construct: anti-CD3 antibody made in CHO cells, captured by anti-human Fc
T16 sequence (VH, as listed by the source limits assumed, chain 1 of 2): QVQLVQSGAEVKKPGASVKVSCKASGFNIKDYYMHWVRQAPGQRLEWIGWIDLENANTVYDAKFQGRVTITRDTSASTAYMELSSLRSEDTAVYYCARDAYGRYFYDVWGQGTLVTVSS
T16 sequence (VL, as listed by the source limits assumed, chain 2 of 2): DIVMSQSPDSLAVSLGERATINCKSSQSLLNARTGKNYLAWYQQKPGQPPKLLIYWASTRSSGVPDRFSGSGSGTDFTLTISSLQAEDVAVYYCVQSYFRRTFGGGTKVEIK
Protocol: as §1, §2
(§7) For data processing and fitting, sensorgrams were double reference subtracted with a baseline drift correction of 4 RU. Sensorgrams were y-aligned and baseline corrected, filtered and cropped to include only the association and dissociation steps. Data was fitted to a 1:1 binding model using Carterra Kinetics Data Analysis software version 1.7.1.3055.

ADI-67445 = target: T17, ADI-67445; assay: SPR Carterra avidity, CHO anti-ID, *koff limit
T17 construct: anti-CD3 antibody made in CHO cells, captured by anti-human Fc
T17 sequence (VH, as listed by the source limits assumed, chain 1 of 2): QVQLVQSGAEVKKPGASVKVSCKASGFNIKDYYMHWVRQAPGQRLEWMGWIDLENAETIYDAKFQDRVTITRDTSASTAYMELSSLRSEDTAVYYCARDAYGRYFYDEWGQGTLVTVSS
Protocol: as §1, §2, §7

ADI-67447 = target: T18, ADI-67447; assay: SPR Carterra avidity, CHO anti-ID, *koff limit
T18 construct: anti-CD3 antibody made in CHO cells, captured by anti-human Fc
T18 sequence (VH, as listed by the source limits assumed, chain 1 of 2): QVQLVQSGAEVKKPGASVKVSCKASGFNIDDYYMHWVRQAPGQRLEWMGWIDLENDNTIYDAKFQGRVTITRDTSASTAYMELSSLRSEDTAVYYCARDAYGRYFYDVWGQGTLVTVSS
Protocol: as §1, §2, §7

ADI-26919 = target: T19, ADI-26919; assay: SPR Carterra avidity, CHO anti-ID, *koff limit
T19 construct: anti-CD3 antibody made in CHO cells, captured by anti-human Fc
Protocol: as §1, §2, §7

ADI-26920 IgG = target: T20, ADI-26920 IgG; assay: SPR Carterra avidity, CHO anti-ID, *koff limit
T20 construct: anti-CD3 IgG
T20 sequence (VH, as listed by the source limits assumed, chain 1 of 2): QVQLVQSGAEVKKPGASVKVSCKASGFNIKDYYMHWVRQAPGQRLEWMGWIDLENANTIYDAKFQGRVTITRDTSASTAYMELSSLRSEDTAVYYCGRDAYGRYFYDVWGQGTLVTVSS
Protocol: as §1, §2, §7

ADI-26921 IgG [2] = target: T14, ADI-26921 IgG; assay: SPR Carterra avidity, CHO anti-ID, *koff limit
Protocol: as §1, §2, §7

ADI-74967 = target: T21, ADI-74967; assay: SPR Carterra avidity, CHO anti-ID, *koff limit
T21 construct: pH-dependent anti-CD3 antibody made in CHO cells
T21 sequence (VH, as listed by the source, chain 1 of 2): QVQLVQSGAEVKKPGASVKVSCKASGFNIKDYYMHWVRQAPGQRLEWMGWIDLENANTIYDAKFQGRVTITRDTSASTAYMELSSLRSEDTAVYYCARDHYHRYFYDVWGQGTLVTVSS
T21 sequence (VL, as listed by the source, chain 2 of 2): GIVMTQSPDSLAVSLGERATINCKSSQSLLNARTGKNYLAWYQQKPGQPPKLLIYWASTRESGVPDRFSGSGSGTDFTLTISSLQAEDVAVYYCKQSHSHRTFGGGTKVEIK
Protocol: as §1, §2, §7

ADI-76357 = target: T22, ADI-76357; assay: SPR Carterra avidity, CHO anti-ID, *koff limit
T22 construct: anti-CD3 antibody made in CHO cells, captured by anti-human Fc
T22 sequence (VH, as listed by the source, chain 1 of 2): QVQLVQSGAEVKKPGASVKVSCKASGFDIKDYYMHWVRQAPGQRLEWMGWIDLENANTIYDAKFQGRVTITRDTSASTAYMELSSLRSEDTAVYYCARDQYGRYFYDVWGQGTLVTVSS
Protocol: as §1, §2, §7

ADI-76361 = target: T23, ADI-76361; assay: SPR Carterra avidity, CHO anti-ID, *koff limit
T23 construct: anti-CD3 antibody made in CHO cells, captured by anti-human Fc
T23 sequence (VH, as listed by the source, chain 1 of 2): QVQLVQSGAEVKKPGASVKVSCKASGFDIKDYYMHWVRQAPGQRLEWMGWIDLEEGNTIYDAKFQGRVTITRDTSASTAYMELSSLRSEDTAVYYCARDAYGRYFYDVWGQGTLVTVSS
Protocol: as §1, §2, §7

T1 sequence (VH, as listed by the source limits assumed, chain 1 of 2): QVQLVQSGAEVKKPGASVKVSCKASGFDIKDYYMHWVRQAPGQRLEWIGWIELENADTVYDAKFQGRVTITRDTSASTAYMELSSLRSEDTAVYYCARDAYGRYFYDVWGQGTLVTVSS

B1: ADI-34145 IgG (antibody, V domains shown)
VH: EVQLLESGGGLVQPGGSLRLSCAASGFTFSSYAMSWVRQAPGKGLEWVSTISGSGGSTYYADSVKGRFTISRDNSKNTLYLQMNSLRAEDTAVYYCARLGGRRGSGSSYYYYYGMDVWGQGTTVTVSS
VL: not shown
notes: anti-ID IgG
Does B1 bind (ADI-70326)?
Result: no binding (tested: up to 200 nM)

And the Kd (ADI-22523 Fab)?
Its Kd is 3.16 nM.

Does B1 bind (CTL-19672 Fab)?
Result: no binding

B2: ADI-34134 IgG (antibody, V domains shown)
VH: QVQLVQSGAEVKKPGSSVKVSCKASGGTFSSYAISWVRQAPGQGLEWMGGIIPIFGTANYAQKFQGRVTITADESTSTAYMELSSLRSEDTAVYYCARGAPNYYGSGGYDDGWFDPWGQGTLVTVSS
VL: EIVLTQSPGTLSLSPGERATLSCRASQSVSSDYLAWYQQKPGQAPRLLIYGASSRATGIPDRFSGSGSGTDFTLTISRLEPEDFAVYYCQQFGRVPTFGGGTKVEIK
Does B2 bind (CTL-62227)?
Result: no binding (tested: up to 200 nM)

Does B2 bind (CTL-62228)?
Result: no binding (tested: up to 200 nM)

Does B2 bind (CTL-62240)?
Result: no binding (tested: up to 200 nM)

What about the Kd (ADI-22523 IgG) of the same binder?
Its Kd is 0.46 nM.

What about the Kd (ADI-26927 IgG) of the same binder?
The Kd was 0.45 nM.

And the Kd (ADI-26928 IgG)?
Its Kd is 0.46 nM.

What about the Kd (ADI-26941 IgG) of the same binder?
Its Kd is 1.13 nM.

And the Kd (ADI-26954 IgG)?
The Kd was 1.04 nM.

What about the Kd (CTL-19613 IgG) of the same binder?
Its Kd is 9.21 nM.

What about the Kd (ADI-26906 IgG) of the same binder?
The Kd was 0.43 nM.

What about the Kd (ADI-26913 IgG) of the same binder?
Its Kd is 0.77 nM.

What about the Kd (ADI-26921 IgG [1]) of the same binder?
Its Kd is 0.85 nM.

And the Kd (ADI-26916 IgG)?
Its Kd is 0.57 nM.

What about the Kd (ADI-50024) of the same binder?
The Kd was 0.26 nM.

What about the Kd (ADI-67445) of the same binder?
Its Kd is 0.13 nM.

And the Kd (ADI-67447)?
Its Kd is 0.12 nM.

And the Kd (ADI-26919)?
Its Kd is 0.11 nM.

What about the Kd (ADI-26920 IgG) of the same binder?
The Kd was 0.11 nM.

What about the Kd (ADI-26921 IgG [2]) of the same binder?
Its Kd is 0.11 nM.

What about the Kd (ADI-74967) of the same binder?
Its Kd is 0.11 nM.

What about the Kd (ADI-76357) of the same binder?
Its Kd is 0.088 nM.

And the Kd (ADI-76361)?
The Kd was 0.094 nM.
